This is an account of results in paper PMC11487272.

Assay [1] addresses cFLIP^tDED_H7G (cFLIP tandem DED, residues 1-181, H7G) (UniProt O15519). Put plainly: crystal structure.
For assay [2], the target named is wild-type cFLIP^tDED as used in the ternary co-purification (UniProt O15519). As to the kind of experiment: cryo-EM structure.

In turn, “cFLIP^tDED_H7G (cFLIP tandem DED, residues 1-181, H7G) (from UniProt O15519 1-181) (domain or fragment)” showed a stoichiometry N (molecules in the complex) in assay [1] of 6.

With “wild-type cFLIP^tDED as used in the ternary co-purification (from UniProt O15519 1-181) (domain or fragment)”, in assay [2], the stoichiometry N (molecules in the complex (Complex D)) came out at 5, the stoichiometry N (molecules in the complex (Complex E)) stood at 6, the stoichiometry N (molecules in the complex (Complex F)) turned out to be 8 and the stoichiometry N (molecules in the complex (Complex G)) was found to be 4.
